Assay results as given in patent US20150329637A1 (NUMAB, published 2015).

How the values were obtained:
[1] = biological target: T1, human IL23R on IL-23R expressing cell lines (DLD-1, SW480, TF-1) (human, UniProt Q5VWK5 24-629); test: cell-based or functional assay
T1 sequence (looked up): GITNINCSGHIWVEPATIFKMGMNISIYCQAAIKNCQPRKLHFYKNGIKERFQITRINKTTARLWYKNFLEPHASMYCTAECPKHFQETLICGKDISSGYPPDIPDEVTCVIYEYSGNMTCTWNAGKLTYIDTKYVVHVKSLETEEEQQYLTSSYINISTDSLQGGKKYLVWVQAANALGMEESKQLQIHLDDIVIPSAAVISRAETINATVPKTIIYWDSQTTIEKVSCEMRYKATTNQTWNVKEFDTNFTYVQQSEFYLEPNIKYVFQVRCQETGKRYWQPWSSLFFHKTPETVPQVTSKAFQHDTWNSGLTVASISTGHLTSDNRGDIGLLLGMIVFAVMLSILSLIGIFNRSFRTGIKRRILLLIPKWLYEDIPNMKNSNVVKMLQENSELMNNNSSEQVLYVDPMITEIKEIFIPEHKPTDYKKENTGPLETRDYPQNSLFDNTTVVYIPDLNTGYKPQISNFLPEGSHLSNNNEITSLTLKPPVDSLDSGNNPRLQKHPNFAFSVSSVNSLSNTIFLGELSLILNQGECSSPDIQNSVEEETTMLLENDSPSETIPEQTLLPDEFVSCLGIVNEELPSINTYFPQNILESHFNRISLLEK

[2] = biological target: T2, Human IL23R extracellular domain (ECD) (human, UniProt Q5VWK5 24-355); test: SPR; human IL23R ECD immobilised, scDb injected
T2 construct: extracellular domain; also called human IL23R ECD
T2 sequence (looked up): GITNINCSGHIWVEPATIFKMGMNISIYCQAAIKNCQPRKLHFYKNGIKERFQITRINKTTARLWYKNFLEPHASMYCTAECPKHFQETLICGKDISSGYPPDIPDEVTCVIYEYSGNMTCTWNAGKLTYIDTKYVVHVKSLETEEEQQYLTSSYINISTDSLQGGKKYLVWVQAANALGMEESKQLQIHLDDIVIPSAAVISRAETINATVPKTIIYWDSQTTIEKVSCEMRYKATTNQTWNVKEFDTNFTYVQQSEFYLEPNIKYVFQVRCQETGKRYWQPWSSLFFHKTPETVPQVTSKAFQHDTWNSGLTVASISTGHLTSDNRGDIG
Description: [000154] For affinity measurements to IL23R, human IL23R extracellular domain (produced on request by Trenzyme) was immobilized on a sensor chip (SPR-2 Affinity Sensor High Capacity Amine, Sierra Sensors) using a standard amine-coupling procedure. Two-fold serial dilutions of scDbs ranging from 90 to 5.6 nM were injected into the flow cells for 3 min and dissociation of the protein from the immobilized IL23R on the sensor chip was allowed to proceed for 720 sec. After each injection cycle, surfaces were regenerated with a 1 min injection of 10 mM Glycine-HCl pH 2.0. The apparent dissociation (kd) and association (ka) rate constants and the apparent dissociation equilibrium constant (KD) are calculated with the MASS-1 analysis software (Analyzer, Sierra Sensors) using one-to-one Langmuir binding model.

[3] = biological target: T3, human heterodimeric single-chain CD3γδ extracellular domain (produced in-house) (human); test: SPR; human single-chain CD3 ECD immobilised, scDb injected
T3 chain: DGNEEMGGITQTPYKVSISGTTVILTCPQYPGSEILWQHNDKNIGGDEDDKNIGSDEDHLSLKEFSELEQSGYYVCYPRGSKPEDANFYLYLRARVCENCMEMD

EC50 of specific target cell lysis [nM], DLD-1 [1]: 45.4 nM
EC50 of specific target cell lysis [nM], SW-480 [1]: 71.7 nM
EC50 of specific target cell lysis [nM], TF-1 [1]: 39.8 nM
Kd [2]: 0.182 nM
Kd [3]: 11.6 nM
koff [3]: 0.00126 s⁻¹
kon [3]: 109000 M⁻¹ s⁻¹
B1: PRO165 (bispecific antibody)
chain: DIQMTQSPSSLSASVGDRVTITCQASENIYSFLAWYQQKPGKAPKLLIYSASKLAAGVPSRFSGSGSGTDFTLTISSLQPEDFATYYCQQTNRYSNPDIYNVFGQGTKLTVLGGGGGSEVQLVESGGGLVQPGGSLRLSCAASGFPLSSYAMIWVRQAPGKGLEWIGMILRAGNIYYASWVKGRFTISRDNSKNTVYLQMNSLRAEDTAVYYCARRHYNREGYPIGIGDLWGQGTLVTVSSGGGGSGGGGSGGGGSGGGGSDIQMTQSPSSLSASVGDRVTITCQSSESVYNNKRLSWYQQKPGKAPKLLIYTASSLASGVPSRFSGSGSGTDFTLTISSLQPEDFATYYCQGEFTCSNADCFTFGQGTKLTVLGGGGGSEVQLVESGGGLVQPGGSLRLSCAASGIDFNSNYYMCWVRQAPGKGLEWIGCIYVGSHVNTYYANWAKGRFTISRDNSKNTVYLQMNSLRAEDTAVYYCATSGSSVLYFKFWGQGTLVTVSS
notes: also called anti-IL23RxCD3ε scDb
